We go through one substance from patent publication US20140072613A1, “Compositions and Methods for Treating Cutaneous Scarring” (priority 2012, published 2014).

Targets include PKBβ(h) (human) (UniProt P31751); Pim-1(h) (human) (UniProt P11309); PKBγ(h) (human) (UniProt Q9Y243); ACK1(h) (human) (UniProt Q07912); Met(Y1248C)(h) (human) (UniProt P08581); Hck(h) activated (human) (UniProt P08631); Snk(h) (human) (UniProt Q9NYY3).
Holding throughout (assay): cell-based or functional assay
For another test, the target named is T1, IRAK4(h) (human) (UniProt Q9NWZ3).
T1 sequence (looked up): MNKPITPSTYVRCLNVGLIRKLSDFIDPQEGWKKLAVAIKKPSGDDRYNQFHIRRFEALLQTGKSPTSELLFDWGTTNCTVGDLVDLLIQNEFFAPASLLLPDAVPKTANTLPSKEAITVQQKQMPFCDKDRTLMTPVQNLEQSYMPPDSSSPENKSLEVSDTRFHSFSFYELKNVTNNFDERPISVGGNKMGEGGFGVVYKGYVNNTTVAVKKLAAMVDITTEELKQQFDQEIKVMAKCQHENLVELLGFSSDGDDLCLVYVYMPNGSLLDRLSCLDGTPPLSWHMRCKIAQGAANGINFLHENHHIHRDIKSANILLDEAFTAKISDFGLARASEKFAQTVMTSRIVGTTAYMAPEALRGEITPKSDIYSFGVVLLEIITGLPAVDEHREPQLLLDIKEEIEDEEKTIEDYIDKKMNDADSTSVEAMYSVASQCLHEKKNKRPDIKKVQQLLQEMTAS

A further test deals with T2, ALK4(h) (human) (UniProt P36896).
T2 sequence (looked up): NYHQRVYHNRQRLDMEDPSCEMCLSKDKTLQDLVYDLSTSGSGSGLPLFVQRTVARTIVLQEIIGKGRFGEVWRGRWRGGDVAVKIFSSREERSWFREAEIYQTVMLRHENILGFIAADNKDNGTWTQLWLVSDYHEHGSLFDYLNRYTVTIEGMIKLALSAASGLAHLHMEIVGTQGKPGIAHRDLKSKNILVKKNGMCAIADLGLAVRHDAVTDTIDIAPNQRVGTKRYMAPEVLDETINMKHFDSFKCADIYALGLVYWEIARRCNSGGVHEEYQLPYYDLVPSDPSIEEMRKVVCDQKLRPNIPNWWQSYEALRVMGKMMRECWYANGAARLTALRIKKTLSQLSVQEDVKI

Sequence of ACK1(h) (human) (Q07912 110-476 limits assumed): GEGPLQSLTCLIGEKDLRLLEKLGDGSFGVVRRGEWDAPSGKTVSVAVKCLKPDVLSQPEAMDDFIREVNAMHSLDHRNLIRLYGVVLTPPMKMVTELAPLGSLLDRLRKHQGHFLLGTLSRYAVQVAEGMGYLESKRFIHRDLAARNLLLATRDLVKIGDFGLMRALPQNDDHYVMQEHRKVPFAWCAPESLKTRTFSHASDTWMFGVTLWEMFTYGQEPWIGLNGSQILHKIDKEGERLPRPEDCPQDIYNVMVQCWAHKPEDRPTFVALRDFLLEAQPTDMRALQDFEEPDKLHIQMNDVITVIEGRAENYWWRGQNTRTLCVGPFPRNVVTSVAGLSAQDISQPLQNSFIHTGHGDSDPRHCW
Sequence of PKBγ(h) (human) (Q9Y243 whole entry): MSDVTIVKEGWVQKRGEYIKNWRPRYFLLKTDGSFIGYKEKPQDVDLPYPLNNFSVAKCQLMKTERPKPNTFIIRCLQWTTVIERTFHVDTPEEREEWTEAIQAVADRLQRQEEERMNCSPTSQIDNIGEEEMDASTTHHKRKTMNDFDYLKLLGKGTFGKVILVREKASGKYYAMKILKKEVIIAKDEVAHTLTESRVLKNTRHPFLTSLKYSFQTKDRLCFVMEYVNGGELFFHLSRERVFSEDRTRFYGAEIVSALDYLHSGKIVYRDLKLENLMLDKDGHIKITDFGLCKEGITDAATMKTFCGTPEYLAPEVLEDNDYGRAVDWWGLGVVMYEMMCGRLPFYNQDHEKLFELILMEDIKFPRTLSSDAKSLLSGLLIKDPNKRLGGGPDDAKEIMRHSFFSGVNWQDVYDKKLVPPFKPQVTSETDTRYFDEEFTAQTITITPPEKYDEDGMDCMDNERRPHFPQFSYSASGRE
Sequence of Pim-1(h) (human) (P11309 whole entry): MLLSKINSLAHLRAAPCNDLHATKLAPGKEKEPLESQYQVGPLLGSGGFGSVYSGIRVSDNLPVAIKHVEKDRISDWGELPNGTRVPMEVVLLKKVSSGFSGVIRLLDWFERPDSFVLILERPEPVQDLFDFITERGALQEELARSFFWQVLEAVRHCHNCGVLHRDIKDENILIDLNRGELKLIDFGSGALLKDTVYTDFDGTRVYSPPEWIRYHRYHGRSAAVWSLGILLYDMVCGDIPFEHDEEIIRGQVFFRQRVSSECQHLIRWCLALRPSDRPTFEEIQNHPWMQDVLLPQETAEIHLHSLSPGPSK
Sequence of PKBβ(h) (human) (P31751 whole entry): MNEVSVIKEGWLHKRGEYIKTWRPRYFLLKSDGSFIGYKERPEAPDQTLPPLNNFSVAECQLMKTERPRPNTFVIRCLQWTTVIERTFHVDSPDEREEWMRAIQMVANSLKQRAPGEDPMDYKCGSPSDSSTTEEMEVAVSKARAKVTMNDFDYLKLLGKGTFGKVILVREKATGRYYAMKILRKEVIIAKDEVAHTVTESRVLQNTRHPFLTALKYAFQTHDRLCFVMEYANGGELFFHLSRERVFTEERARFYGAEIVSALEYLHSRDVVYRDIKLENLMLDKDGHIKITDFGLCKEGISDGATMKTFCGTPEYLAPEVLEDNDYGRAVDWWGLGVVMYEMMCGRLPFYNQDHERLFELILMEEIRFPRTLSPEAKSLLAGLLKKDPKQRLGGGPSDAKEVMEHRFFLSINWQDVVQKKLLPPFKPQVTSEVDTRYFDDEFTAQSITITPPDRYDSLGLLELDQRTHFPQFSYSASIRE
Sequence of Hck(h) activated (human) (P08631 251-518 limits assumed): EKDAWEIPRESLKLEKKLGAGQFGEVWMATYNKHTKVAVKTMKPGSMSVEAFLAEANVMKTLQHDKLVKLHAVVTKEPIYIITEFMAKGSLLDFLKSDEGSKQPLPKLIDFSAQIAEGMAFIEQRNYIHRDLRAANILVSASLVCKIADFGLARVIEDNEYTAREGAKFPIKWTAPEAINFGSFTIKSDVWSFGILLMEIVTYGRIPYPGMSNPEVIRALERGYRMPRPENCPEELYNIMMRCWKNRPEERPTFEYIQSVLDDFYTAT
Sequence of Snk(h) (human) (Q9NYY3 whole entry): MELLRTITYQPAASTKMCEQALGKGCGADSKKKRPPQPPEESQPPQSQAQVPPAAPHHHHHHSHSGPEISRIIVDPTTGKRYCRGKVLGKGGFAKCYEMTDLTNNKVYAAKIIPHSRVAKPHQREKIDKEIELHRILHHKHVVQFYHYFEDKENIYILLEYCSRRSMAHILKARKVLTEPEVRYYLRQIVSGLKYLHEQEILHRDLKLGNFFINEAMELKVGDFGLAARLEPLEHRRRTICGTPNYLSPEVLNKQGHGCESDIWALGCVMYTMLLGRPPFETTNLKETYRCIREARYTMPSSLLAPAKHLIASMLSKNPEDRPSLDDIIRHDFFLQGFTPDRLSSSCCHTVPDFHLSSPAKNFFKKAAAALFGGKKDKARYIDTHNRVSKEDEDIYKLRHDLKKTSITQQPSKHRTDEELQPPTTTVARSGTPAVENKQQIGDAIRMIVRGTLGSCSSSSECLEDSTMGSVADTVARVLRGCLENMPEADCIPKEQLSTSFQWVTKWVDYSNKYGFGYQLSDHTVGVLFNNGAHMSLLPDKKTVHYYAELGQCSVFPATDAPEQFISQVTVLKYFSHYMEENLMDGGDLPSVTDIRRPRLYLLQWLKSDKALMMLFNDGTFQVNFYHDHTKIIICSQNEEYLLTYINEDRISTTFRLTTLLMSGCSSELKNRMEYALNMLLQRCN

Take MMI-0500 (peptide): the % activity, 100 µM with IRAK4(h) (human) was 3%; in the test with PKBβ(h) (human) it was 21%; with Pim-1(h) (human) it was 0%; with PKBγ(h) (human) it was 20%; in the test with ACK1(h) (human), 64%; in the test with ALK4(h) (human), 81%. For the same substance, the % activity, 100 µM in the test with Met(Y1248C)(h) (human) turned out to be 73%; in the test with Hck(h) activated (human), 67%; with Snk(h) (human), 122%.
